# Laboratory results reported in patent US10857209B2, “Lysosomal acid lipase and PPAR gamma ligands as immune therapies for cancer treatment” (Indiana University Research and Technology Corporation, priority 2016, dated 2020).
# B1: hLAL: human lysosomal acid lipase expressed from a doxycycline-controlled tissue-specific transgene in lal−/− mice; never administered as a protein (protein)
# chain: GPKPVVFLQHGLLADSSNWVTNLANSSLGFILADAGFDVWMGNSRGNTWSRKHKTLSVSQDEFWAFSYDEMAKYDLPASINFILNKTGQEQVYYVGHSQGTTIGFIAFSQIPELAKRIKMFFALGPVASVAFCTSPMAKLGRLPDHLIKDLFGDKEFLPQSAFLKWLGTHVCTHVILKELCGNLCFLLCGFNERNLNMSRVDVYTTHSPAGTSVQNMLHWSQAVKFQKFQAFDWGSSAKNYFHYNQSYPPTYNVKDMLVPTAVWSGGHDWLADVYDVNILLTQITNLVFHESIPEWEHLDFIWGLDAPWRLYNKIINLMRKYQ
# modifications: left off: small tags and cut ends
# notes: human lysosomal acid lipase expressed from a doxycycline-controlled tissue-specific transgene in lal−/− mice; never administered as a protein
# What was measured:
# B16 melanoma cells = experiment: In vitro co-culture of pre-treated MDSCs and B16 melanoma cells; format: cell-based, mouse; settings: lal−/− Ly6G+ cells pre-treated 20 μmol/L 24 hours; 72 hours co-culture; vs ethanol
# Procedure: Ethanol or 20 μmol/L 9-HODE pre-treated (for 24 hours) MDSCs (5×10^5) and B16 melanoma cells (5×10^3) were mixed, and seeded into a well of 96-well plates in DMEM supplemented with 10% FBS. Seventy-two hours later, unattached MDSCs were removed by washing with PBS, and the number of attached B16 melanoma cells was counted. Morphologically, MDSCs are much smaller than B16 melanoma cells for exclusion.
# [1] = Histology and morphometry of organs in CCSP-Tg/KO mice (lung epithelial hLAL expression); format: in vivo, mouse
# From the text: Wild-type (lal^+/+) and lal^−/− mice of the FVB/N background were bred in house. CCSP-rtTA/(TetO)7-CMV-hLAL; lal^−/− (CCSP-Tg/KO) triple mice were generated by crossbreeding previously made CCSP-rtTA transgenic mice and (TetO)7-CMV-hLAL transgenic mice into lal^−/− mice. This triple transgenic mouse model is lung AT II epithelial cells-specific Tet-on expression of wild-type human LAL (hLAL) in lal^−/− mice under the control of the CCSP promoter. All scientific protocols involving the use of animals were approved by the Institutional Animal Care and Use Committee of Indiana University School of Medicine and followed guidelines established by the Panel on Euthanasia of the American Veterinary Medical Association. Animals were housed under Institutional Animal Care and Use Committee-approved conditions in a secured animal facility at Indiana University School of Medicine.
# The lungs were harvested and fixed with 4% paraformaldehyde in PBS at 4° C. overnight. After embedding in paraffin, tissue sections were cut to 5 μm thick. Hematoxylin and eosin (H&E) staining was performed by the Histological Core Facility, Department of Pathology and Laboratory Medicine, Indiana University. […] Images were analyzed by Nikon NIS Elements imaging software. […] The alveoli were assessed by area, diameter and perimeter using the integrated morphometry analysis tool. […]
# cytokines and chemokines [2] = experiment: Cytokines and chemokines in plasma (ELISA) and liver (qPCR) of LAP-Tg/KO mice; format: in vivo, mouse
# Procedure: Total RNAs were purified from livers or isolated hepatocytes using RNeasy Mini Kits according to the manufacturer's instruction (Qiagen). Quantitative real-time RT-PCR (qPCR) was performed as described in Wu et al., Blood 2012, 119:115-126). Relative gene expression levels were analyzed using the 2^−ΔΔCT method. Primers of mouse IL-6, mouse granulocyte-macrophage colony-stimulating factor (GM-CSF), mouse macrophage colony-stimulating factor, mouse tumor necrosis factor (TNF)-α, mouse IL-2, mouse IL-4, mouse IL-17, mouse interferon (IFN)-γ, mouse monocyte chemotactic protein-1 (MCP-1), mouse chemokine ligand (CCL)-3, mouse CCL4, mouse CCL5, mouse CXCL10, and glyceraldehyde-3-phosphate dehydrogenase for qPCR were described in Qu et al. Cancer Res 2009, 69:7252-7261; Zhao et al., Oncogene 2014, 34:1938-1948.
# The expression levels of IL-6, GM-CSF, MCP-1 (BD Bio-sciences), and CCL5 (R&D Systems, Minneapolis, Minn.) in the plasma and hepatocyte culture medium were measured using enzyme-linked immunosorbent assay (ELISA) kits according to the manufacturer's instructions.
# CD4+ T cells = experiment: T cell proliferation assay with BALF cells of CCSP-Tg/KO mice; format: cell-based, mouse; settings: BALF cells from doxycycline-treated CCSP-Tg/KO mice; BALF cells:CD4+ T cells 1:5, 4 days
# Procedure: To determine the immunosuppressive effects of BALF cells, BALF was harvested by PBS. After the centrifugation, the resulting cell pellets were collected and used. CD4^+ T cells were prepared and CFSE labeled as we previously described (15). Labeled CD4^+ T cells were co-cultured with BALF cells in 96-well plates pre-coated with anti-CD3 monoclonal antibody (mAb) (2 μg/mL) and anti-CD28 mAb (5 μg/mL) at 37° C., 5% CO2 for 4 days. The ratio of BALF cells:CD4^+ T cells was 1:5. Proliferation of CD4^+ T cells was evaluated as CFSE dilution by FACS.
# cytokines and chemokines [3] = experiment: Cytokines and chemokines in BALF and plasma (ELISA) and lung (RT-PCR) of CCSP-Tg/KO mice; format: in vivo, mouse
# Procedure: BALF was collected by 1 mL PBS. The expression levels of IL-6, GM-CSF, MCP-1 and TNFα in the BALF and plasma were measured using ELISA kits (BD Biosciences, San Jose, Calif.) according to the manufacturer's instructions.
# Total RNAs were purified from lungs of lal^+/+, lal^−/− and CCSP-Tg/KO triple mice using RNeasy Mini Kits according to the manufacturer's instruction (Qiagen, Valencia, Calif., USA). Quantitative (q)RT-PCR was performed as described previously (Wu et al., Blood. 2012; 119:115-26). Analysis was performed by the 2^−ΔΔCT method. Primers of mIL-6, mIL-1β, mIL-10, mGM-CSF, mM-CSF, mTNF-α, mMCP-1, mCCL5 and GAPDH were used for real-time PCR.
# [4] = doxycycline-treated vs untreated CCSP-Tg/KO mice
# [5] = doxycycline-untreated LAP-Tg/KO triple mice (hLAL on)
# [6] = doxycycline-treated CCSP-Tg/KO mice
Molecule,proliferation of B16 melanoma cells upon co-culture (B16 melanoma cells),"liver and spleen pathology [1, 4]","lung damage (emphysema, alveolar area, diameter, perimeter) ([1]; lung epithelial expression, doxycycline-treated CCSP-Tg/KO mice)",liver IL-4 and IL-17 mRNA levels (cytokines and chemokines [2]; [5]),liver mRNA levels of IL-2 and IFN-γ (cytokines and chemokines [2]; [5]),"liver mRNA levels of IL-6, GM-CSF, M-CSF and TNF-α (cytokines and chemokines [2]; [5])","liver mRNA of chemokines MCP-1, CCL3, CCL4, CCL5 and CXCL10 (cytokines and chemokines [2]; [5])","plasma concentrations of IL-6, GM-CSF, MCP-1 and CCL5 (ELISA) (cytokines and chemokines [2]; untreated (hLAL on) vs doxycycline-treated LAP-Tg/KO mice)",inhibition of T cell proliferation by BALF cells (CD4+ T cells),lung GM-CSF mRNA level (cytokines and chemokines [3]; [6]),"lung mRNA levels of IL-6, MCP-1, TNFα, CCL5, IL-10 and IL-1β (cytokines and chemokines [3]; [6])","IL-6, GM-CSF, MCP-1 and TNFα concentrations in BALF (ELISA) (cytokines and chemokines [3]; [4])","IL-6, GM-CSF, MCP-1 and TNFα levels in the plasma (cytokines and chemokines [3]; [4])"
9-hydroxyoctadecadienoic acid [9-HODE],significantly decreased proliferation of B16 melanoma cells,,,,,,,,,,,,
B1,,no improvement in the liver and spleen,partially restored,unchanged,reduced mRNA levels,significantly down-regulated,markedly down-regulated,decreased,reduced inhibition on T cell proliferation,remained unchanged,significantly down-regulated,significantly decreased,similar
